Assay results: patent US20180356429A1 (Genentech, published 2018)

B1: 11H4 (anti-IL-13 mu11H4) (antibody, IgG1, V domains shown)
VH: QVTLKESGPGILQPSQTLSLTCSFSGFSLSTSDMGVGWIRQPSGKGLEWLAHIWWDDVKRYNPALKSRLTISKDTSSSQVFLKIASVDTADTATYYCARIGTNYGYDGLFDYWGQGTTLTVSS
VL: DIVLTQSPASLAVSLGQRATISCRASQSVSTSSYSYMNWYQQTPGQPPKLLIKYASNLESGIPARFSGSGSGTDFTLNIHPVEEEDTATYYCQHSWEIPYTFGGGT
notes: Murine antibody; In the IMPACT IL-13 assay it was used as full-length IgG1 labelled with digoxigenin
B2: biotinylated lebrikizumab F(ab')2 (other)
VH: VTLRESGPALVKPTQTLTLTCTVSGFSLSAYSVNWIRQPPGKALEWLAMIWGDGKIVYNSALKSRLTISKDTSKNQVVLTMTNMDPVDTATYYCAGDGYYPYAMDNWGQGSLVTVSS
VL: DIVMTQSPDSLSVSLGERATINCRASKSVDSYGNSFMHWYQQKPGQPPKLLIYLASNLESGVPDRFSGSGSGTDFTLTISSLQAEDVAVYYCQQNNEDPRTFGGGTKVEIK
modifications: biotinylated (sites not given)
notes: F(ab')2 fragment of lebrikizumab, the capture reagent of the IMPACT IL-13 assay; also called capture antibody; first antibody

Columns and labels:
[1] = molecular target: T1, Recombinant human IL-13 (R&D Systems, MN, catalog no. 213-ILB/CF) (human, UniProt P35225 33-146); assay: sandwich pair screen, 100 pg/mL recombinant IL-13 against blank, binder is detection Ab 11H4; capture Ab 228B/C
T1 construct: also called recombinant IL-13
T1 sequence (P35225 other isoform, or with tags, fused parts or gaps): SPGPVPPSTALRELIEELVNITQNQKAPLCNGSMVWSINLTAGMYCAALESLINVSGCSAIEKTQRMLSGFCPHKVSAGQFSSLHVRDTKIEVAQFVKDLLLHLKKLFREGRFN

[2] = molecular target: T1, Recombinant human IL-13 (R&D Systems, …); assay: sandwich pair screen, 100 pg/mL recombinant IL-13 against blank, binder is detection Ab 11H4; capture Ab MILR1444A
[3] = molecular target: T2, native IL-13 in human serum (human, UniProt P35225 33-146); assay: pre-incubation of serum with excess (100 ug/mL) capture antibody for 1 h at room temperature, then IMPACT IL-13 sandwich assay
T2 construct: Endogenous IL-13 in serum of healthy volunteers and of patients with asthma, IPF or atopic dermatitis; also called serum IL-13; endogenous IL-13
T2 sequence (P35225 other isoform, or with tags, fused parts or gaps): as above

Row | Binder | positive/negative ratio [1] | positive/negative ratio [2] | binding result [3]
1 | B1 | 317 | 22800 | 
2 | B2 |  |  | binds
